Experimental data published in paper PMC11891782.

Experiments:
Assay in all cases: ELISA; dose-response: 1 μg component adsorbed; rLIC_13355 serially diluted 1:1 from 1 μg, 1 h at 37 °C; anti-His mAb detection; KD by non-linear regression, one site specific binding
[1] = target: Laminin-1 from the basement membrane of Engelbreth-Holm-Swarm mouse sarcoma (mouse) (UniProt P19137)
[2] = target: Native plasminogen, purified
Plasma fibronectin = target: Plasma fibronectin

Row | Substance | Kd [1] | Kd [2] | Kd (Plasma fibronectin)
1 | rLIC_13355, recombinant putative lipoprotein encoded by the gene LIC_13355 of Leptospira interrogans (natural protein) | 0.0185 µM | 0.0118 µM | 
2 | rLIC_13355, recombinant putative lipoprotein encoded by the gene LIC_13355 of Leptospira interrogans (natural protein; other documents disagree on this pair) |  |  | 3.49 µM
